{
  "source": "paper PMC9072312",
  "about": "“Candida albicans evades NK cell elimination via binding of Agglutinin-Like Sequence proteins to the checkpoint receptor TIGIT” (Nature Communications, 2022)",
  "target": "T1, PVR-Ig (extracellular portion of human PVR fused to the Fc domain of human IgG1) (human, UniProt P15151 21-343)",
  "T1 construct": "PVR (poliovirus receptor), human ligand of TIGIT, extracellular portion; source: HEK293T, transfected (pIRESpuro3), secreted, purified (HiTrap Protein G HP)",
  "T1 sequence": "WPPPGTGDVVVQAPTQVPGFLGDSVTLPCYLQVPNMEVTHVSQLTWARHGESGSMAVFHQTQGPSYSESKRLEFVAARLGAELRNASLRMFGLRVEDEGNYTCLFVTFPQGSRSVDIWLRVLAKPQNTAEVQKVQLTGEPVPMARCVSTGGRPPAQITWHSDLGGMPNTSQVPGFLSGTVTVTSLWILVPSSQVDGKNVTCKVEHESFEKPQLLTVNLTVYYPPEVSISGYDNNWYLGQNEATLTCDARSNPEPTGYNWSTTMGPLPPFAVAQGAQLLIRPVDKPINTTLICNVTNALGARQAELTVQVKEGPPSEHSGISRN",
  "assay": "MST; RED-NHS labeled TIGIT-Ig at constant level, unlabeled Ig-fusion proteins serially diluted in 1x PBS; Monolith NT.115, 20% MST power, 95% LED power, standard capillaries, 25 °C",
  "conditions": "both partners purified",
  "data": [
    {"binder": "TIGIT-Ig (extracellular ligand-binding domain of human TIGIT fused to the Fc domain of human IgG1) (Fc fusion, fluorescently labeled with the Monolith NT Protein Labeling Kit RED-NHS, also called human TIGIT-Ig; T cell immunoreceptor with Ig and ITIM domains; source: HEK293T, transfected (pIRESpuro3), secreted, purified (HiTrap Protein G HP)) MMTGTIETTGNISAEKGGSIILQCHLSSTTAQVTQVNWEQQDQLLAICNADLGWHISPSFKDRVAPGPGLGLTLQSLTVNDTGEYFCIYHTYPDGTYTGRIFLEVLESSVAEHGARFQIP", "values": [
      {"measurement": "binding result", "result": "binds"}
    ]}
  ]
}
